The source of these data is patent publication US20050196403A1 (published 2005).

The target in experiment [1] is HLA-B*0702 (Human).
The target of experiment [2] is HLA-B*5101 (Human). Briefly: competition vs 125I probe, purified HLA.
Experiment [3] addresses HLA-B*0702 (Human). Briefly: competition vs 125I probe, purified HLA.
Experiment [4] has as its target HLA-B*5401 (Human). Briefly: competition vs 125I probe, purified HLA.
The target in experiment [5] is HLA-A*0101 (human). Briefly: competition with 125I probe peptide, purified HLA class I.
For experiment [6], the target named is HLA-A*0206 (human). Described as above.
Experiment [7] concerns the target HLA-A*0206 (Human). Briefly: competition vs 125I probe, purified HLA.
Experiment [8] addresses HLA-A*0201 (human). In words: competition with 125I probe peptide, purified HLA class I.
The target of experiment [9] is HLA-A*6801 (human). The description is as above.
The target in experiment [10] is HLA-A*1101 (human). The description is as above.
Experiment [11] addresses HLA-A*0203 (Human). Briefly: competition vs 125I probe, purified HLA.
The target in experiment [12] is HLA-B*5301 (Human). Briefly: competition vs 125I probe, purified HLA.
Experiment [13] has as its target HLA-B*3501 (Human). Briefly: competition vs 125I probe, purified HLA.
The target of experiment [14] is HLA-A*3101 (human). Briefly: competition with 125I probe peptide, purified HLA class I.
For experiment [15], the target named is HLA-A*0301 (human). The description is as above.

Several values for one entry are separate records, joined by “and”; a condition that tells them apart may be missing. Equal entries are not always repeated. Non-standard residues stand in square brackets, D forms with d. No end group written: not given here. Abu = CC[C@H](N)C(=O)O

B1: p53 peptide MPEAAPPV (position 66, 8 amino acids) (peptide)
peptide: MPEAAPPV
Turning to B1, the “binding affinity ratio (IC50 of standard peptide / IC50 of test peptide)” value in [1] was 0.0028 ratio.

B2: 48.0234 FPALNKMFCQL (p53.127.F1) (peptide)
peptide: FPALNKMFCQL
With B2, the values for the IC50 in [2], in experiment [3] and in experiment [4] were 5500 nM, 0.052 nM and 500 nM, respectively.

B3: 57.0126 GTDKSVTCTY p53.117.D3 (peptide)
peptide: GTDKSVTCTY
For B3, the IC50 (commonly the concentration at which inhibition is half-maximal) in experiment [5] is 42.4 nM.

B4: p53 peptide TPAAPAPA (position 81, 8 amino acids) (peptide)
peptide: TPAAPAPA
On to B4, for which the “binding affinity ratio (IC50 of standard peptide / IC50 of test peptide)” value in experiment [1] turned out to be 0.0041 ratio.

B5: 48.0123 FPGTRVRAI (p53.152.F1) (peptide)
peptide: FPGTRVRAI
B5: the 50% inhibitory concentration (IC50) worked out at 663 nM in [2] and 1.1 nM in experiment [3].

B6: 1329.04 CTTIHYNYM p53.229 (peptide)
peptide: CTTIHYNYM
B6 showed an IC50 in experiment [6] of 561 nM.

B7: p53 peptide LPENNVLSPL (position 26, 10 amino acids) (peptide)
peptide: LPENNVLSPL
On to B7, for which, in experiment [1], the “binding affinity ratio (IC50 of standard peptide / IC50 of test peptide)” value is 0.007 ratio.

B8: 48.0127 FPQPKKKPI (p53) (peptide)
peptide: FPQPKKKPI
Molecule B8 registered an IC50 in experiment [3] of 0.61 nM.

B9: 48.0128 FPQPKKKPL (p53) (peptide)
peptide: FPQPKKKPL
Molecule B9 gave an IC50 in experiment [3] of 2.3 nM.

B10: p53.229 CTTIHYNYM (peptide)
peptide: CTTIHYNYM
B10 returned an IC50 in [7] of 561 nM.

B11: LLGRDSFEV mp53.261 (peptide)
peptide: LLGRDSFEV
As to B11, the IC50 in experiment [8] is 41.7 nM and 27.8 nM.

B12: 1371.31 RVBABPGRDRK p53.273.B3B5K11 (peptide)
peptide: RV[Abu]A[Abu]PGRDRK
In the case of B12, the values for the half-inhibitory concentration (IC50) in experiment [9] and in experiment [10] were 2500 nM and 200 nM, respectively.

B13: p53 peptide SPLPSQAM (position 33, 8 amino acids) (peptide)
peptide: SPLPSQAM
With B13, in experiment [1], the “binding affinity ratio (IC50 of standard peptide / IC50 of test peptide)” value came to 0.0044 ratio.

B14: p53.193 HLIRVEGNLRV (peptide)
peptide: HLIRVEGNLRV
Molecule B14 had an IC50 in experiment [11] of 83 nM.

B15: 48.0055 FPALNKMF (p53.127.F1) (peptide)
peptide: FPALNKMF
As for B15, the IC50 in [12] was found to be 6200 nM; in [13], 3000 nM; in experiment [3], 0.025 nM.

B16: p53 peptide LPSQAMDDL (position 35, 9 amino acids) (peptide)
peptide: LPSQAMDDL
B16: the “binding affinity ratio (IC50 of standard peptide / IC50 of test peptide)” value in experiment [1] came out at 0.0038 ratio.

B17: 1371.18 KVFBQLAK p53.132.V2B4 (peptide)
peptide: KVF[Abu]QLAK
B17: the IC50 in experiment [14] came out at 7500 nM; in experiment [15], 846 nM.

B18: 1371.17 BVYSPALNR p53.124.B1V2R9 (peptide)
peptide: BVYSPALNR
modifications: B at position 1 is alpha-amino butyric acid (in place of cysteine)
Regarding B18, the IC50 in [9] was 14.8 nM; in [15], 25 nM; in experiment [10], 8.3 nM.

B19: 48.0196 FPPGSTKRAL (p53) (peptide)
peptide: FPPGSTKRAL
B19: the half-inhibitory concentration (IC50) in [2] is 6110 nM; in experiment [3], 0.79 nM.

B20: p53 peptide KPLDGEYFTL (position 321, 10 amino acids) (peptide)
peptide: KPLDGEYFTL
B20: in experiment [1], the “binding affinity ratio (IC50 of standard peptide / IC50 of test peptide)” value stood at 0.0055 ratio.

B21: 1371.27 SVBMGGMNRR p53.240.V2B3 (peptide)
peptide: SV[Abu]MGGMNRR
B21: the IC50 in experiment [14] was determined as 621 nM; in experiment [9], 11.4 nM; in experiment [15], 1000 nM; in experiment [10], 25 nM.
